Molecular target: Htz1^Flag (S. cerevisiae histone H2A.Z with a Flag epitope tag) (S. cerevisiae) (UniProt Q12692)
Assay: co-IP

Chain of histone H2A (S. cerevisiae, endogenous) (P04911 whole entry): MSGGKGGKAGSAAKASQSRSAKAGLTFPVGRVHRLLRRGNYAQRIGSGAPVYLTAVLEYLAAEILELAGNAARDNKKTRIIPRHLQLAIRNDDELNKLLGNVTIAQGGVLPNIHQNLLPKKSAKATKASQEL
Chain of Htz1^Flag (S. cerevisiae histone H2A.Z with a Flag epitope tag) (S. cerevisiae) (Q12692 whole entry): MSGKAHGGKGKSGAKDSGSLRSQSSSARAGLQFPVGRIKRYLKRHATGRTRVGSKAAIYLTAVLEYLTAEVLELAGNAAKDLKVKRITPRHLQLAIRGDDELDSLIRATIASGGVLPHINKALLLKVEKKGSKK

- estimated molar ratio of H2A and Htz1^Flag in the Flag eluate: 0.49
Substance: histone H2A (S. cerevisiae, endogenous) (from UniProt P04911 1-132) (natural protein)

From article PMC7251641
